What was measured:
Test in all cases: purified protein
Format in all cases: biochemical, Thraustochytrium roseum
Details in all cases: 100 μM hexadecanol, pH 7.4, 37 °C, acyl-CoA varied 15-90 μM
[1] = test system: CCCCCCCCCCCCCCCC(=O)SCCNC(=O)CCNC(=O)[C@H](O)C(C)(C)COP(=O)(O)OP(=O)(O)OC[C@H]1O[C@@H](n2cnc3c(N)ncnc32)[C@H](O)[C@@H]1OP(=O)(O)O
[2] = test system: CCCCCCCCCCCCCC(=O)SCCNC(=O)CCNC(=O)[C@H](O)C(C)(C)COP(=O)(O)OP(=O)(O)OC[C@H]1O[C@@H](n2cnc3c(N)ncnc32)[C@H](O)[C@@H]1OP(=O)(O)O
[3] = test system: CCCCC/C=C\C/C=C\C/C=C\CCCCC(=O)SCCNC(=O)CCNC(=O)[C@H](O)C(C)(C)COP(=O)(O)OP(=O)(O)OC[C@H]1O[C@@H](n2cnc3c(N)ncnc32)[C@H](O)[C@@H]1OP(=O)(O)O
[4] = test system: CCCCCCCCCC(=O)SCCNC(=O)CCNC(=O)[C@H](O)C(C)(C)COP(=O)(O)OP(=O)(O)OC[C@H]1O[C@@H](n2cnc3c(N)ncnc32)[C@H](O)[C@@H]1OP(=O)(O)O
[5] = test system: CCCCC/C=C\C/C=C\C/C=C\C/C=C\CCCC(=O)SCCNC(=O)CCNC(=O)[C@H](O)C(C)(C)COP(=O)(O)OP(=O)(O)OC[C@H]1O[C@@H](n2cnc3c(N)ncnc32)[C@H](O)[C@@H]1OP(=O)(O)O
[6] = test system: CCCCCCCCCCCCCCCCCC(=O)SCCNC(=O)CCNC(=O)[C@H](O)C(C)(C)COP(=O)(O)OP(=O)(O)OC[C@H]1O[C@@H](n2cnc3c(N)ncnc32)[C@H](O)[C@@H]1OP(=O)(O)O
[7] = test system: CC/C=C\C/C=C\C/C=C\C/C=C\C/C=C\CCCC(=O)SCCNC(=O)CCNC(=O)[C@H](O)C(C)(C)COP(=O)(O)OP(=O)(O)OC[C@H]1O[C@@H](n2cnc3c(N)ncnc32)[C@H](O)[C@@H]1OP(=O)(O)O
[8] = test system: CCCCCCCCCCCC(=O)SCCNC(=O)CCNC(=O)[C@H](O)C(C)(C)COP(=O)(O)OP(=O)(O)OC[C@H]1O[C@@H](n2cnc3c(N)ncnc32)[C@H](O)[C@@H]1OP(=O)(O)O
[9] = test system: CCCCCCCC(=O)SCCNC(=O)CCNC(=O)[C@H](O)C(C)(C)COP(=O)(O)OP(=O)(O)OC[C@H]1O[C@@H](n2cnc3c(N)ncnc32)[C@H](O)[C@@H]1OP(=O)(O)O
purified protein [10] = substrate: CCCCCCCCCCCCCC(=O)SCCNC(=O)CCNC(=O)[C@H](O)C(C)(C)COP(=O)(O)OP(=O)(O)OC[C@H]1O[C@@H](n2cnc3c(N)ncnc32)[C@H](O)[C@@H]1OP(=O)(O)O; remark: listed apart in the source
purified protein [11] = substrate: CC/C=C\C/C=C\C/C=C\C/C=C\C/C=C\CCCC(=O)SCCNC(=O)CCNC(=O)[C@H](O)C(C)(C)COP(=O)(O)OP(=O)(O)OC[C@H]1O[C@@H](n2cnc3c(N)ncnc32)[C@H](O)[C@@H]1OP(=O)(O)O; remark: listed apart in the source
purified protein [12] = substrate: CCCCC/C=C\C/C=C\C/C=C\C/C=C\CCCC(=O)SCCNC(=O)CCNC(=O)[C@H](O)C(C)(C)COP(=O)(O)OP(=O)(O)OC[C@H]1O[C@@H](n2cnc3c(N)ncnc32)[C@H](O)[C@@H]1OP(=O)(O)O; remark: listed apart in the source
purified protein [13] = substrate: CCCCC/C=C\C/C=C\C/C=C\CCCCC(=O)SCCNC(=O)CCNC(=O)[C@H](O)C(C)(C)COP(=O)(O)OP(=O)(O)OC[C@H]1O[C@@H](n2cnc3c(N)ncnc32)[C@H](O)[C@@H]1OP(=O)(O)O; remark: listed apart in the source
purified protein [14] = substrate: CCCCCCCCCCCC(=O)SCCNC(=O)CCNC(=O)[C@H](O)C(C)(C)COP(=O)(O)OP(=O)(O)OC[C@H]1O[C@@H](n2cnc3c(N)ncnc32)[C@H](O)[C@@H]1OP(=O)(O)O; remark: listed apart in the source
purified protein [15] = substrate: CCCCCCCC(=O)SCCNC(=O)CCNC(=O)[C@H](O)C(C)(C)COP(=O)(O)OP(=O)(O)OC[C@H]1O[C@@H](n2cnc3c(N)ncnc32)[C@H](O)[C@@H]1OP(=O)(O)O; remark: listed apart in the source
purified protein [16] = substrate: CCCCCCCCCCCCCCCC(=O)SCCNC(=O)CCNC(=O)[C@H](O)C(C)(C)COP(=O)(O)OP(=O)(O)OC[C@H]1O[C@@H](n2cnc3c(N)ncnc32)[C@H](O)[C@@H]1OP(=O)(O)O; remark: listed apart in the source
purified protein [17] = substrate: CCCCCCCCCC(=O)SCCNC(=O)CCNC(=O)[C@H](O)C(C)(C)COP(=O)(O)OP(=O)(O)OC[C@H]1O[C@@H](n2cnc3c(N)ncnc32)[C@H](O)[C@@H]1OP(=O)(O)O; remark: listed apart in the source
purified protein [18] = substrate: CCCCCCCCCCCCCCCCCC(=O)SCCNC(=O)CCNC(=O)[C@H](O)C(C)(C)COP(=O)(O)OP(=O)(O)OC[C@H]1O[C@@H](n2cnc3c(N)ncnc32)[C@H](O)[C@@H]1OP(=O)(O)O; remark: listed apart in the source

TrWSD5 (ΔTmTrWSD5) (Thraustochytrium roseum; DEL472-494)
Km [1]: 24.77 µM
Vmax [1]: 0.213 µmol/min/mg
kcat [1]: 0.341 s⁻¹
kcat/Km [1]: 13700 M⁻¹ s⁻¹
Km [2]: 18.5 µM
Vmax [2]: 0.207 µmol/min/mg
kcat [2]: 0.331 s⁻¹
kcat/Km [2]: 17900 M⁻¹ s⁻¹
Km [3]: 284.68 µM
Vmax [3]: 0.152 µmol/min/mg
kcat [3]: 0.242 s⁻¹
kcat/Km [3]: 850 M⁻¹ s⁻¹
Km [4]: 0.96 µM
Vmax [4]: 0.0589 µmol/min/mg
kcat [4]: 0.0941 s⁻¹
kcat/Km [4]: 98300 M⁻¹ s⁻¹
Km [5]: 226.35 µM
Vmax [5]: 0.103 µmol/min/mg
kcat [5]: 0.165 s⁻¹
kcat/Km [5]: 729 M⁻¹ s⁻¹
Km [6]: 75.87 µM
Vmax [6]: 0.379 µmol/min/mg
kcat [6]: 0.604 s⁻¹
kcat/Km [6]: 7960 M⁻¹ s⁻¹
Km [7]: 106.2 µM
Vmax [7]: 0.312 µmol/min/mg
kcat [7]: 0.498 s⁻¹
kcat/Km [7]: 4690 M⁻¹ s⁻¹
Km [8]: 25.93 µM
Vmax [8]: 0.152 µmol/min/mg
kcat [8]: 0.243 s⁻¹
kcat/Km [8]: 9370 M⁻¹ s⁻¹
Km [9]: 12.25 µM
Vmax [9]: 0.0639 µmol/min/mg
kcat [9]: 0.102 s⁻¹
kcat/Km [9]: 8330 M⁻¹ s⁻¹

B1: TrWSD4 (Thraustochytrium roseum) (protein)
chain: MAENNNHLDEAVVDEAQREQDVEVEEEVEEEEEEEEEEEEEAVVEDVKATLADGPAEKSPKVAPKQTKRKGRRVKHRASVTTRLIGNLQREAQSKSSWVVGLLFFKSDPGFEAVRETVGKRLLQIPRFRSKLTARRFPAKMEFVELDDDEIDMDYHFRQAFQDRTATLDEVDEFVGSMFDGFNHPMDKPLWQITYIPKLEDGRAVLITNISHIVGDGIAQVEVLMRLLDPVKESKGEKVQKPRTGANKKRKPPALGPFTKAKVFMGGVWEGFFSVISSPDKKNTLRLKDVNKPSPTKRCTFSETIPLDKVKELKNMYEGATLNDVLVTLLTLTLRAYFREVGDKGALRNKVRAQFPINIRSKSEGPFRNDNPRNKFTYGFMPFHVSGNRDASATFWRTKRTLDKIKSSPSPVVQHQVGKVISNIMPLKALNAQLLNLAAKATAQVSNVPGPQDAVTVAGTEVDDMRFLLYSPLSFYVGLLTYNGNLSASFCIDSALADPRLISKHWLPEFEKFYAHAKEAAGESGLIRKPRSCLDCL
Km (purified protein [10]): 3.94 µM
Vmax (purified protein [10]): 0.0202 µmol/min/mg
kcat (purified protein [10]): 0.0254 s⁻¹
kcat/Km (purified protein [10]): 6440 M⁻¹ s⁻¹
Km (purified protein [11]): 131.16 µM
Vmax (purified protein [11]): 0.00905 µmol/min/mg
kcat (purified protein [11]): 0.0114 s⁻¹
kcat/Km (purified protein [11]): 86.6 M⁻¹ s⁻¹
Km (purified protein [12]): 297.17 µM
Vmax (purified protein [12]): 0.0118 µmol/min/mg
kcat (purified protein [12]): 0.0148 s⁻¹
kcat/Km (purified protein [12]): 49.9 M⁻¹ s⁻¹
Km (purified protein [13]): 280.86 µM
Vmax (purified protein [13]): 0.0188 µmol/min/mg
kcat (purified protein [13]): 0.0236 s⁻¹
kcat/Km (purified protein [13]): 84 M⁻¹ s⁻¹
Km (purified protein [14]): 0.14 µM
Vmax (purified protein [14]): 0.0161 µmol/min/mg
kcat (purified protein [14]): 0.0202 s⁻¹
kcat/Km (purified protein [14]): 146000 M⁻¹ s⁻¹
Km (purified protein [15]): 29.93 µM
Vmax (purified protein [15]): 0.0148 µmol/min/mg
kcat (purified protein [15]): 0.0185 s⁻¹
kcat/Km (purified protein [15]): 619 M⁻¹ s⁻¹
Km (purified protein [16]): 3.08 µM
Vmax (purified protein [16]): 0.0255 µmol/min/mg
kcat (purified protein [16]): 0.032 s⁻¹
kcat/Km (purified protein [16]): 10400 M⁻¹ s⁻¹
Km (purified protein [17]): 17.6 µM
Vmax (purified protein [17]): 0.0122 µmol/min/mg
kcat (purified protein [17]): 0.0154 s⁻¹
kcat/Km (purified protein [17]): 873 M⁻¹ s⁻¹
Km (purified protein [18]): 19.15 µM
Vmax (purified protein [18]): 0.0302 µmol/min/mg
kcat (purified protein [18]): 0.0379 s⁻¹
kcat/Km (purified protein [18]): 1980 M⁻¹ s⁻¹

From paper PMC5513132, “Two bifunctional enzymes from the marine protist Thraustochytrium roseum: biochemical characterization of wax ester synthase/acyl-CoA:diacylglycerol acyltransferase activity catalyzing wax ester and triacylglycerol synthesis” (Biotechnology for Biofuels, 2017)
